We go through three molecules from publication PMC4844672 (Nature Communications, 2016).

Data set [1] concerns the target GbLFY-SAM (N-terminal SAM domain of Ginkgo biloba LEAFY, wild type) (Ginkgo biloba). Nature of the data set: SEC-MALS; SEC-MALLS on Superdex-200 10/300GL in buffer A, 20 °C, 0.5 ml/min; 50 µl at ~4.5 mg/ml injected; [RE+TE] is an equimolar mixture of the TE and RE mutants. A general note: Size exclusion chromatography separates by hydrodynamic size, large species first.

Another data set addresses T1, AtLFY (Arabidopsis thaliana, UniProt Q00958 1-420).
T1 sequence: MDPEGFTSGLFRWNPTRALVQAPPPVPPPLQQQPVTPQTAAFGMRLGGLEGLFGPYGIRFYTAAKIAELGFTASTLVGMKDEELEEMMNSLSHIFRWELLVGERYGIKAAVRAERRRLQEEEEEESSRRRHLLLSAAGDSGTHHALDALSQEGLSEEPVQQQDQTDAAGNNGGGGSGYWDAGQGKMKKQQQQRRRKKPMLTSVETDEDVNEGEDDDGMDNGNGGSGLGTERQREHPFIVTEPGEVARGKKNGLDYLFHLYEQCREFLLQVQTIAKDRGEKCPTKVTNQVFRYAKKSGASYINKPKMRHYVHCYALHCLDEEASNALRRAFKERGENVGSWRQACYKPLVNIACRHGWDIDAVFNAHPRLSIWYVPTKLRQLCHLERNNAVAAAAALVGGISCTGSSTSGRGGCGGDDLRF
The data set can be described thus: EMSA; 500 nM; behaves like GbLFYΔ; EMSA: 20 mM Tris-HCl pH 7.5, 150 mM NaCl, 1% glycerol, 0.25 mM EDTA, 2 mM MgCl2, 0.01% Tween-20, 3 mM TCEP, 28 ng/ml fish sperm DNA, 10 nM probe, 25-500 nM prot. On the technique in general: In EMSA bound probe runs differently from free probe, usually more slowly.

Data set [2] concerns the molecule itself. Nature of the data set: SEC; Superdex-200 10/300GL in buffer A, 4 °C, calibrated with protein standards; molecular mass estimated at different protein concentrations.

Where only a bound is given, the exact number is not on record here.

A word on the stoichiometry N: it is the number of molecules, sites or subunits per partner or assembly. For “GbLFY-SAM (N-terminal SAM domain of Ginkgo biloba LEAFY, wild type) (domain or fragment)”, in data set [1], the stoichiometry N was < 8 monomers.

B1: AGI-II (dsDNA)
DNA 1: CGTTTAAATTTAATCCAATGGTTACAATTTTAATACTATCAAATGTCTATTGGATTTATACCCAATGTGTTAATGGGTTG
DNA 2: CAACCCATTAACACATTGGGTATAAATCCAATAGACATTTGATAGTATTAAAATTGTAACCATTGGATTAAATTTAAACG
Regarding B1, the binding result with AtLFY is “binds”.

B2: AtLFY-SAM (SAM domain of A. thaliana LEAFY) (domain or fragment, Arabidopsis thaliana, UniProt Q00958 38-151, looked up)
chain: QTAAFGMRLGGLEGLFGPYGIRFYTAAKIAELGFTASTLVGMKDEELEEMMNSLSHIFRWELLVGERYGIKAAVRAERRRLQEEEEEESSRRRHLLLSAAGDSGTHHALDALSQ
notes: LEAFY (LFY) of Arabidopsis thaliana, residues 38-151 of the A. thaliana LFY cDNA (plasmid pETH201, vector pETM-11); also called SAM domain of A. thaliana LFY; source: E. coli Rosetta2 (DE3), purified (Ni-Sepharose, TEV cleavage, Superdex-200); not shown: 6 x His, N-terminal, cleaved
For the molecule B2, the binding result in data set [2] is listed as “binds”.
